The target in assay [1] is T1, biotinylated splitNanoluc1-8.
T1 chain: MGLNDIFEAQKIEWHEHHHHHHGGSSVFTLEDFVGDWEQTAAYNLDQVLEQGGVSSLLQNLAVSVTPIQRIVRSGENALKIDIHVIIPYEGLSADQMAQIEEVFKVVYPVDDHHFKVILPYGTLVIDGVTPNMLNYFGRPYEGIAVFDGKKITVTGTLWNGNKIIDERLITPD
Put plainly: mRNA display pull-down with biotinylated splitNanoluc1-8 on streptavidin beads, qPCR. A general note: Real-time PCR tracks product formation cycle by cycle.
Procedure: (§1) Each Display molecule before reacting with biotinylated splitNanoluc1-8 was also subjected to qPCR in the same way, and the input nucleic acid amount was calculated.

For assay [2] the target is unchanged. Kind of assay: mRNA display pull-down with biotinylated splitNanoluc1-8, qPCR.
Procedure: as §1

No end group written: not given here. puromycin linker = puromycin spacer joining the C-terminus of the translated peptide to its mRNA (mRNA display); mRNA = not defined here

As to MVSGWRLFKKISGSGSGSGSENLYFQGKK-{puromycin linker-mRNA} (reading uncertain; also: mRNA reverse transcribed before assay, mRNA display molecule) [splitNanoluc-10], the binding result in assay [1] is “no binding”. Moreover, the “fold lower recovery rate than the splitNanoluc9-10 fusion peptide” value in assay [2] was ≥ 300 times.
MGSMLFRVTINSGSGSGSGSENLYFQGKK-{puromycin linker-mRNA} (reading uncertain; also: mRNA reverse transcribed before assay, mRNA display molecule) [splitNanoluc-9]: the binding result in assay [1] was “no binding”. Also, in assay [2], the “fold lower recovery rate than the splitNanoluc9-10 fusion peptide” value is ≥ 300 times.

The values are drawn from patent US20240069033A1 (Chugai, published 2024).
